Measurements as given in the supplement of paper PMC7932537, “Quantitative profiling of protease specificity” (PLoS Computational Biology, 2021).
± gives the uncertainty stated by the source.

What was measured:
MMP-9 catalytic domain = MMP-9 catalytic domain (UniProt P14780); assay: kcat/KM (M-1 s-1); higher = more efficient cleavage by the protease
Procedure: (§1)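 Catalytic efficiency (kcat/KM) of synthetic peptides carrying hexamer sequences taken from MMP-2/9 substrate phage selections. Cleavage was measured with recombinant human MMP-2 or MMP-9 catalytic domains (expressed in HEK293, APMA-activated, active-site titrated with GM6001), in triplicate, as described in the authors' ref 27.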

MMP-2 catalytic domain = MMP-2 catalytic domain (UniProt P08253); assay: as above
Procedure: as §1

Chain of MMP-2 catalytic domain (P08253 whole entry, looked up, the tested form may be a part): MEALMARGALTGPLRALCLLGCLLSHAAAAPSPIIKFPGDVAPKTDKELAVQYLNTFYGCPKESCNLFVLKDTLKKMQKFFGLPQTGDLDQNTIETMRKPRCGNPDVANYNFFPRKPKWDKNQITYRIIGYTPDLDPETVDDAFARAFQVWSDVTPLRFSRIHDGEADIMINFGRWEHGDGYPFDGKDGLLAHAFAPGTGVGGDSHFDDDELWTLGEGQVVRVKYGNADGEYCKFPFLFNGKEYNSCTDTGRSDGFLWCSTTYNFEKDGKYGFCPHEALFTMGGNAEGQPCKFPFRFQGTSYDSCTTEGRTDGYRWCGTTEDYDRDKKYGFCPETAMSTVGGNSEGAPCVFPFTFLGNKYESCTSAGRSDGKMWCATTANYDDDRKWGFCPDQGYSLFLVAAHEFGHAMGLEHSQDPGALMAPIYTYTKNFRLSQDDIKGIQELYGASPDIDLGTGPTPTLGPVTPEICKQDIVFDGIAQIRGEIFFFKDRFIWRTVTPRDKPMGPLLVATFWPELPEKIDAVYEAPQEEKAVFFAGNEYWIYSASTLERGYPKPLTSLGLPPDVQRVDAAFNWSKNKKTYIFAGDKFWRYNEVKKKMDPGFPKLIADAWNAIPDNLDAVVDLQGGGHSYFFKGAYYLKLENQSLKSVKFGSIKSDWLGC
Chain of MMP-9 catalytic domain (P14780 whole entry, the tested form may be a part): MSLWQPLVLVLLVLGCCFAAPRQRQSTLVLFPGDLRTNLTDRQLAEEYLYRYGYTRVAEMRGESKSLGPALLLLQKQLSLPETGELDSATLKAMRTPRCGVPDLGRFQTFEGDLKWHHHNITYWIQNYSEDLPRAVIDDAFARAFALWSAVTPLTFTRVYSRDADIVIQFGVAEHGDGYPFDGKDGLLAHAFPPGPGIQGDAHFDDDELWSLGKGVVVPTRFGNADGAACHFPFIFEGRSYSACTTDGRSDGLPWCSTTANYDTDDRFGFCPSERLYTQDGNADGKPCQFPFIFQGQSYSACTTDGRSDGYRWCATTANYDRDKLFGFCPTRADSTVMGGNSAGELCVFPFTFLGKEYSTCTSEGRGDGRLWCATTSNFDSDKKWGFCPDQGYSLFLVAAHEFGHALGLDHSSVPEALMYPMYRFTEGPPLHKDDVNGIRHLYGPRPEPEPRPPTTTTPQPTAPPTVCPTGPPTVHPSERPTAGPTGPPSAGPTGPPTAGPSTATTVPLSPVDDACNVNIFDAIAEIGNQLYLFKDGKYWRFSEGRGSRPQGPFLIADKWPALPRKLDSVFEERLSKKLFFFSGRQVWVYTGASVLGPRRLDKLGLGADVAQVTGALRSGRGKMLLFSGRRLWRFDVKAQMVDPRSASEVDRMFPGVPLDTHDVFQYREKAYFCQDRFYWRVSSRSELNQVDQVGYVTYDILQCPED

Substance	kcat/KM (MMP-9 catalytic domain)	kcat/KM (MMP-2 catalytic domain)
AHNLSS	9130 ± 640	16400 ± 620
DGPVSF	9530 ± 160	22200 ± 940
DRKPKA	0	0
EPVSLA	2680 ± 64	7230 ± 110
EVPQAL	43200 ± 580	47700 ± 3300
GEPFEL	15500 ± 1100	8910 ± 670
GEPRGQ	52200 ± 3000	48000 ± 960
GKPVSM	43700 ± 2600	69800 ± 46000
GPAGIR	49830 ± 250	181000 ± 96000
GPALSY	17500 ± 760	12600 ± 210
GPARPY	26200 ± 1600	39700 ± 1900
GPRGLK	71030 ± 710	125000 ± 5300
GQPMNL	90600 ± 8800	51400 ± 4300
INPQGL	74100 ± 8200	114000 ± 14000
IPLASL	3730 ± 120	45700 ± 960
IRPKHF	97100 ± 7900	43200 ± 4200
KSPLRQ	34600 ± 230	6570 ± 450
KSPQSY	66100 ± 4700	46500 ± 1900
MRPVGH	31800 ± 2600	39300 ± 3400
MSPANI	94700 ± 7900	188000 ± 23000
NPQNIR	20300 ± 620	35600 ± 560

Substance	kcat/KM (MMP-9 catalytic domain)	kcat/KM (MMP-2 catalytic domain)
PAGVKA	15200 ± 610	51800 ± 1300
PAPNSL	49000 ± 6600	87800 ± 14000
PEGLQG	19900 ± 590	33700 ± 1200
PGPAGQ	59800 ± 2100	154000 ± 23000
PHGYKG	54200 ± 4300	34600 ± 650
PHNILS	51700 ± 1400	23800 ± 1000
PIQLQS	11900 ± 320	10300 ± 350
PKALPY	37300 ± 1400	31000 ± 590
PKGYQG	85700 ± 1400	48000 ± 2700
PLQLQT	24900 ± 1200	10000 ± 190
PMALMD	36900 ± 3300	15300 ± 440
PMDIHA	46000 ± 1400	15300 ± 280
PQGLAG	40400 ± 1100	37400 ± 1300
PQPEGL	48400 ± 2200	53800 ± 2400
PQPLDL	55200 ± 2700	32300 ± 2800
PQPSEL	45500 ± 5000	51200 ± 2200
PRGFSH	896 ± 900	1390 ± 1400
PRGVKG	62100 ± 850	58000 ± 1400
PRPQAA	17000 ± 880	13400 ± 1100
PSPADI	18600 ± 1600	70600 ± 3700
PTPKAL	69100 ± 1900	35900 ± 2400

Substance	kcat/KM (MMP-9 catalytic domain)	kcat/KM (MMP-2 catalytic domain)
PVNMTD	9420 ± 660	15700 ± 290
PYEWHS	26000 ± 1200	5850 ± 600
PYGIKG	51400 ± 2200	54400 ± 2400
QPLEIR	45100 ± 1200	28400 ± 1100
QPPLPL	18700 ± 350	15400 ± 1400
QQPQAL	70100 ± 2900	46800 ± 2300
QQPSRL	94300 ± 1600	259000 ± 29000
RMMREL	9020 ± 390	25300 ± 650
RPEDLR	16500 ± 1300	21300 ± 500
RRPRPL	38200 ± 2100	25000 ± 850
SAAQPL	11600 ± 400	12900 ± 340
SIPLPL	22400 ± 340	15100 ± 430
SPMAFS	11400 ± 440	18400 ± 250
SRPAEF	16400 ± 740	98800 ± 35000
TAPSSQ	45100 ± 8000	141600 ± 1200
TTPSPI	41000 ± 7100	115000 ± 20000
VHPSAV	33900 ± 3000	34300 ± 940
VSALSS	7040 ± 190	24900 ± 1200
WPSPFR	11600 ± 180	36800 ± 970

Results, then the substance that gave them:

kcat/KM (MMP-9 catalytic domain)	kcat/KM (MMP-2 catalytic domain)	Substance
33400 ± 740	34400 ± 940	APALWI
25200 ± 1700	15840 ± 130	ARHYKS
37200 ± 4900	56400 ± 5200	DSPQNL
55400 ± 2200	133000 ± 23000	EGPAGL
18900 ± 2200	17700 ± 940	EPKPLL
7950 ± 380	19700 ± 660	ETPRPW
3600 ± 320	9100 ± 920	GPEGMK
22100 ± 340	16400 ± 670	GPHGYK
34000 ± 2300	88300 ± 4700	GPKGFR
37800 ± 1800	30900 ± 11000	GPRYLM
8720 ± 330	32100 ± 18000	HPVSMV
84500 ± 2000	37600 ± 1600	KPVNMT
109000 ± 7600	62600 ± 6300	KSPQAM
140000 ± 4400	182000 ± 45000	KSPSRL
18400 ± 730	15000 ± 600	KSPVGV
45900 ± 2300	42400 ± 1700	LPKPLR
46100 ± 1800	10000 ± 610	LSPFGQ
73000 ± 9100	64800 ± 3000	MGPLGQ
21200 ± 1300	22600 ± 6500	NPMPIR
46200 ± 2100	88100 ± 10000	NRPNNL

kcat/KM (MMP-9 catalytic domain)	kcat/KM (MMP-2 catalytic domain)	Substance
27000 ± 2400	23900 ± 1000	NVARPM
7420 ± 290	26000 ± 290	PAQLHV
89400 ± 9500	104000 ± 6400	PEPAAL
38500 ± 1900	22800 ± 800	PGPIGI
28700 ± 860	27000 ± 1000	PGPIGW
12500 ± 270	16300 ± 2800	PHGLAT
75300 ± 11000	30700 ± 650	PHPRLL
33200 ± 5000	12300 ± 2000	PLRQIG
23900 ± 850	9900 ± 730	PRPFHH
50100 ± 8300	92000 ± 14000	PSNMEG
12400 ± 760	7030 ± 260	PVAIPM
64000 ± 7200	60400 ± 1200	PVGMKG
72300 ± 1400	92100 ± 1800	QGPAAI
61100 ± 2800	31000 ± 750	QSPINL
64400 ± 1800	79700 ± 8500	SPPAAI
21100 ± 1300	107000 ± 13000	TPAAMT
106000 ± 4800	54700 ± 1400	TQPKAM
48900 ± 1900	18000 ± 700	VEPLKF
16200 ± 1600	27700 ± 1800	VPQEWR
